Source: patent US20030027165A1 (published 2003)

T1: pol κ76, 76-kDa alternatively spliced isoform of DNA polymerase κ (human, UniProt Q9UBT6 1-870)
T1 construct: 672-residue open reading frame (GenBank AF315602), cloned by RT-PCR from human foreskin RNA with ON-DIN5'm and ON-DIN-THc; It was inserted BamHI/SalI into FLAG-modified pGBT9 and pGAD424; also called 76-kDa pol κ isoform; not shown: N-terminal yeast two-hybrid fusion part from the FLAG-modified pGBT9 or pGAD424 vector (Clontech) plus FLAG peptide; No
T1 sequence: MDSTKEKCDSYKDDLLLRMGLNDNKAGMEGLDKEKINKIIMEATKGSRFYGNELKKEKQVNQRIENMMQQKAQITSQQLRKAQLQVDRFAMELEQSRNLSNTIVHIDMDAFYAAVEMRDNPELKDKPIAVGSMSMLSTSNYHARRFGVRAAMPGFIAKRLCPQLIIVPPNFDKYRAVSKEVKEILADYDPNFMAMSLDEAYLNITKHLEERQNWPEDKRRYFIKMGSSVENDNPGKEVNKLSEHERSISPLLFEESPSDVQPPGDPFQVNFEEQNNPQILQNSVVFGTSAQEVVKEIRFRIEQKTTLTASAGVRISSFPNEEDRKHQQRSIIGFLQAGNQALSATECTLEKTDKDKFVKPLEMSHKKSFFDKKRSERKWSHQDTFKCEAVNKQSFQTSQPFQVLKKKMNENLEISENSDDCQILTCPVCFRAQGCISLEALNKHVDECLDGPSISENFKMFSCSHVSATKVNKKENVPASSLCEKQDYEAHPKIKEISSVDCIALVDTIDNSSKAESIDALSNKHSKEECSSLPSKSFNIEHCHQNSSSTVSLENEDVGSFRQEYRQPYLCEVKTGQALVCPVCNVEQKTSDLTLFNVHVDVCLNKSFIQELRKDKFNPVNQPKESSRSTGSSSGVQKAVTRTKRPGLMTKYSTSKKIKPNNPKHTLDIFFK

T2: pol κ, DNA polymerase κ, the primary protein product of POLK (human, UniProt Q9UBT6 1-870)
T2 construct: not shown: N-terminal yeast two-hybrid fusion part from the FLAG-modified pGBT9 or pGAD424 vector (Clontech) plus FLAG peptide; No
T2 sequence (looked up): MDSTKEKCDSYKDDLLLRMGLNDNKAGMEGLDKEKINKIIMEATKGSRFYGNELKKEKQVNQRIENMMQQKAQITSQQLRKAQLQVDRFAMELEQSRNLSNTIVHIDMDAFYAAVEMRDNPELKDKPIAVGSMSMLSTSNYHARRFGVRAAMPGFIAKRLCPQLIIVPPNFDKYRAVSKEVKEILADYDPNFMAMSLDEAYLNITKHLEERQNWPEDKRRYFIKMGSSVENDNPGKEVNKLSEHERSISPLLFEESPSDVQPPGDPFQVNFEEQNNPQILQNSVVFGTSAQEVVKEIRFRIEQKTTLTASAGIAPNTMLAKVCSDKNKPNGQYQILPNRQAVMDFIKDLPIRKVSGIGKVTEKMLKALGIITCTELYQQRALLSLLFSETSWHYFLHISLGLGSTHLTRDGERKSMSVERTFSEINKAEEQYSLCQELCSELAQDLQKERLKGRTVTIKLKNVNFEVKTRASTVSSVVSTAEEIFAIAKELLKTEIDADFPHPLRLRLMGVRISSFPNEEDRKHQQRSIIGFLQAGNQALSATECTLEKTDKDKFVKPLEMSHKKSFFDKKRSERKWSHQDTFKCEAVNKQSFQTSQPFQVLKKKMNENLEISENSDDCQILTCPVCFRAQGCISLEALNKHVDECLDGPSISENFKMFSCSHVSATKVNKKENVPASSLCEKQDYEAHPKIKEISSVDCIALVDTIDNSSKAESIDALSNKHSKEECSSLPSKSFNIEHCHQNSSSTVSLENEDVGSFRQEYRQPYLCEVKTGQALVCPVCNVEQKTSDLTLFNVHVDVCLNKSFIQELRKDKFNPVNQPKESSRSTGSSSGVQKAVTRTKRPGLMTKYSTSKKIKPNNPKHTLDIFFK

B1: GPBPΔ26, alternatively spliced GPBP variant deleted for 26 amino acid residues (enzyme)
chain: MSDNQSWNSSGSEEDPETESGPPVERCGVLSKWTNYIHGWQDRWVVLKNNALSYYKSEDETEYGCRGSICLSKAVITPHDFDECRFDISVNDSVWYLRAQDPDHRQQWIDAIEQHKTESGYGSESSLRRHGSMVSLVSGASGYSATSTSSFKKGHSLREKLAEMETFRDILCRQVDTLQKYFDACADAVSKDELQRDKVVEDDEDDFPTTRSDGDFLHSTNGNKEKLFPHVTPKGINGIDFKGEAITFKATTAGILATLSHCIELMVKREDSWQKRLDKETEKKRRTEEAYKNAMTELKKKSHFGGPDYEEGPNSLINEEEFFDAVEAALDRQDKIEEQSQSEKVRLHWPTSLPSGDAFSSVGTHRFVQKVEEMVQNHMTYSLQDVGGDANWQLVVEEGEMKVYRREVEENGIVLDPLKATHAVKGVTGHEVCNYFWNVDVRNDWETTIENFHVVETLADNAIIIYQTHKRVWPASQRDVLYLSVIRKIPALTENDPETWIVCNFSVDHDSAPLNNRCVRAKINVAMICQTLVSPPEGNQEISRDNILCKITYVANVNPGGWAPASVLRAVAKREYPKFLKRFTSYVQEKTAGKPILF
notes: The two-hybrid construct is not described; also called GPBP?26; GPBPD26
B2: Goodpasture antigen binding protein (GPBP) (enzyme, human, UniProt Q9Y5P4 1-624, looked up)
chain: MSDNQSWNSSGSEEDPETESGPPVERCGVLSKWTNYIHGWQDRWVVLKNNALSYYKSEDETEYGCRGSICLSKAVITPHDFDECRFDISVNDSVWYLRAQDPDHRQQWIDAIEQHKTESGYGSESSLRRHGSMVSLVSGASGYSATSTSSFKKGHSLREKLAEMETFRDILCRQVDTLQKYFDACADAVSKDELQRDKVVEDDEDDFPTTRSDGDFLHSTNGNKEKLFPHVTPKGINGIDFKGEAITFKATTAGILATLSHCIELMVKREDSWQKRLDKETEKKRRTEEAYKNAMTELKKKSHFGGPDYEEGPNSLINEEEFFDAVEAALDRQDKIEEQSQSEKVRLHWPTSLPSGDAFSSVGTHRFVQKPYSRSSSMSSIDLVSASDDVHRFSSQVEEMVQNHMTYSLQDVGGDANWQLVVEEGEMKVYRREVEENGIVLDPLKATHAVKGVTGHEVCNYFWNVDVRNDWETTIENFHVVETLADNAIIIYQTHKRVWPASQRDVLYLSVIRKIPALTENDPETWIVCNFSVDHDSAPLNNRCVRAKINVAMICQTLVSPPEGNQEISRDNILCKITYVANVNPGGWAPASVLRAVAKREYPKFLKRFTSYVQEKTAGKPILF

What was measured:
[1] = target: T1, pol κ76, 76-kDa alternatively spliced …; test: yeast two-hybrid
[2] = target: T2, pol κ, DNA polymerase κ, the primary …; test: yeast two-hybrid

| Binder | binding result [1] | binding result [2] |
| --- | --- | --- |
| B1 | no binding | no binding |
| B2 | no binding | no binding |
